Here are results for eight molecules from patent publication US20220089784A1 (University of California, published 2022).

Sequences and labels used below:
T1: BoNT/C1 holotoxin (Clostridium botulinum, UniProt P18640 2-1291)
T1 sequence: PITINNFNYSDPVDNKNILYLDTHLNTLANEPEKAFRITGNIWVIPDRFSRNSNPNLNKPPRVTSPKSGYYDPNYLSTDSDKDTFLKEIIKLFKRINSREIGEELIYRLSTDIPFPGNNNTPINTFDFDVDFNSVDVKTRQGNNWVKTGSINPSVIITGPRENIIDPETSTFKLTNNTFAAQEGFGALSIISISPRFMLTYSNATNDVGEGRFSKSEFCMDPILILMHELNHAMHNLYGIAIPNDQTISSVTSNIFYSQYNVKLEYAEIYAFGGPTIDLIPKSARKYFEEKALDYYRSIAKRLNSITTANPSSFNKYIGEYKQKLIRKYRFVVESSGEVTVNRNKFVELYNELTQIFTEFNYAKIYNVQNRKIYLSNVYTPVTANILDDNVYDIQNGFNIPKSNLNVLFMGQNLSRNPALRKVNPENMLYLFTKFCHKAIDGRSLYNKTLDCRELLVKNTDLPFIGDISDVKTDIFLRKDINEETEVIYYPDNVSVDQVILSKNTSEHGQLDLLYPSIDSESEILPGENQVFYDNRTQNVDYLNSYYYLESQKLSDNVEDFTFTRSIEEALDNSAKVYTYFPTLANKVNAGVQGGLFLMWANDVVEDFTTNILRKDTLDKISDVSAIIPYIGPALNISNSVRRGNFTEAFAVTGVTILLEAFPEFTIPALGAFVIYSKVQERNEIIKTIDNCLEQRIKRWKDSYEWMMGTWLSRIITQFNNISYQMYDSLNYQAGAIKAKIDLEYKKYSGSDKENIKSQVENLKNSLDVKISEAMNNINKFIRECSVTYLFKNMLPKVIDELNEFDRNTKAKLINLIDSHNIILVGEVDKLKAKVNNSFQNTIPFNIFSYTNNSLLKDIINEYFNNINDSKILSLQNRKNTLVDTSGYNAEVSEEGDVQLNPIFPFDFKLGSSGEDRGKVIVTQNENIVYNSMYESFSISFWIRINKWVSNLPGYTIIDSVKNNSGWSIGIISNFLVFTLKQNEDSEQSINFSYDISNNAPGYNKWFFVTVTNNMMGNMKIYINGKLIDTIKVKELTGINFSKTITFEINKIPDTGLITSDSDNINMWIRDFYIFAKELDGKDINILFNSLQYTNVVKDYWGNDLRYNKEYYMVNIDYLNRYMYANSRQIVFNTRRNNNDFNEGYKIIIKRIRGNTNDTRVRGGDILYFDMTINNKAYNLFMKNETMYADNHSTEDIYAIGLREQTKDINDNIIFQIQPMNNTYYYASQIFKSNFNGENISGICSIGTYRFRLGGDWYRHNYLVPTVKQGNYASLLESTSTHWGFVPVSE

T2: BoNT/D (Clostridium botulinum, UniProt P19321 2-1276)
T2 sequence: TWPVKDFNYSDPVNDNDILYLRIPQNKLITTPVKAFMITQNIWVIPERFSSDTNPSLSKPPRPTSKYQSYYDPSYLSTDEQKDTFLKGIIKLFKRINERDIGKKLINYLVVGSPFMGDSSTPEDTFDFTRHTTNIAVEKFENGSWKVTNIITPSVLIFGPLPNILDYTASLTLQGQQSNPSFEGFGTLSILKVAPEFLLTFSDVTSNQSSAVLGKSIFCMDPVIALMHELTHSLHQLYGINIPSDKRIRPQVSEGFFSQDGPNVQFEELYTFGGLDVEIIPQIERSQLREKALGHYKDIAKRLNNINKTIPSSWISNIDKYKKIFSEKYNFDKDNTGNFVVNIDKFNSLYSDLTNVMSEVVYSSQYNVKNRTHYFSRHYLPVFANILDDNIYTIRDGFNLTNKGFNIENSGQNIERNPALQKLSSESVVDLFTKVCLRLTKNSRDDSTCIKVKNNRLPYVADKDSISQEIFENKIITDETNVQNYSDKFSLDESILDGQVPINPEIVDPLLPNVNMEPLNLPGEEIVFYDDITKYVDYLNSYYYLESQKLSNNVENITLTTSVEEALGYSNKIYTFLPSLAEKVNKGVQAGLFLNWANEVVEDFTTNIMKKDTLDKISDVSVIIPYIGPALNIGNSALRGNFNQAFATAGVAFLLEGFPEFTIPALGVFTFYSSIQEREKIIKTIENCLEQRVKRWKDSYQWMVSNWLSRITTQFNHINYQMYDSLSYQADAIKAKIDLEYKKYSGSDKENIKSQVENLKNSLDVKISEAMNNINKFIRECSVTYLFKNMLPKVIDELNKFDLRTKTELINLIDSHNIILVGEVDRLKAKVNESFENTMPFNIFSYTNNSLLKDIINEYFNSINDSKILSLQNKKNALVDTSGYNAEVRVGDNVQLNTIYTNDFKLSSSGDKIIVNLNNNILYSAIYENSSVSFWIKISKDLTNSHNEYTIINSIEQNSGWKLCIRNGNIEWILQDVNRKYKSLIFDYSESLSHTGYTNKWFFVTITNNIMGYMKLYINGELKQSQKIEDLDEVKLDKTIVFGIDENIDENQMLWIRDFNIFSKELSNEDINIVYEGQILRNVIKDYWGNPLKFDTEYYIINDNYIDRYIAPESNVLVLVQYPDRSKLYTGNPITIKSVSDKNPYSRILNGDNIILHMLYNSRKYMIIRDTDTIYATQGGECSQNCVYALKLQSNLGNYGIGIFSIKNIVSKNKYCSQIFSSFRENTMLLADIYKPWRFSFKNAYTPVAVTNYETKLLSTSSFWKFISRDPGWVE

T3: BoNT/F1 (proteolytic BoNT/F) (Clostridium botulinum, UniProt A7GBG3 1-1278)
T3 sequence: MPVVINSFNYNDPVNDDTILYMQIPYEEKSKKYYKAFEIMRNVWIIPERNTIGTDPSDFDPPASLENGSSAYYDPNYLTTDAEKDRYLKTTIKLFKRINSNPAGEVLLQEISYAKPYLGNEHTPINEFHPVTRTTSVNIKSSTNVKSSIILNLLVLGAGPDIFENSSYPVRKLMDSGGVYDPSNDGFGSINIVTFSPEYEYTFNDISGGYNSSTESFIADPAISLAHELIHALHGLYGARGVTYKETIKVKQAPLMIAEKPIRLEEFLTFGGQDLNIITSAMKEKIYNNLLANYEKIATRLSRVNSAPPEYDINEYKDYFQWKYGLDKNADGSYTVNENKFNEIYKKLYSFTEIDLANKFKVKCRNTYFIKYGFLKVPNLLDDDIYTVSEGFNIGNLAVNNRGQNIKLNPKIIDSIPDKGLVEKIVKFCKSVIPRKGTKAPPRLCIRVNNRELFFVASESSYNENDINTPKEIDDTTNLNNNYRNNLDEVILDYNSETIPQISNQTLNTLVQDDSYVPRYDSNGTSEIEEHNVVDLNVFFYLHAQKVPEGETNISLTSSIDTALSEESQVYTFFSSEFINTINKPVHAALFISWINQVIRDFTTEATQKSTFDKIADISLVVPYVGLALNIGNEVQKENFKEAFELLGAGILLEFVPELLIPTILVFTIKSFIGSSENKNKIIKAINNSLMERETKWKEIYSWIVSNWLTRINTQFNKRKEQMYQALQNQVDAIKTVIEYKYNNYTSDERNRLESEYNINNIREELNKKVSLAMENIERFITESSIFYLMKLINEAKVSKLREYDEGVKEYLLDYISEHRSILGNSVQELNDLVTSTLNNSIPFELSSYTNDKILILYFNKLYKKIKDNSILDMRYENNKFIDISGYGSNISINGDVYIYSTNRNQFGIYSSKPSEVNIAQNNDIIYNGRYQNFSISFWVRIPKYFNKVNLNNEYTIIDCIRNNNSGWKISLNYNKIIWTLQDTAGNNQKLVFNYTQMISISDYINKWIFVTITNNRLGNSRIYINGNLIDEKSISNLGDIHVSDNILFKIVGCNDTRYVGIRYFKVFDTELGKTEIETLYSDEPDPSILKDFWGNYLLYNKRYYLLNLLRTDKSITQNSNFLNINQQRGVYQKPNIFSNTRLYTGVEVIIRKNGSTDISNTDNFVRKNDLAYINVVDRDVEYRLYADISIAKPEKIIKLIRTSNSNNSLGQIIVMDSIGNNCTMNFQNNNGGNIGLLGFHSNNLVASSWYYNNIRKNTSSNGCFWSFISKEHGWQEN

B1: 4C8 scFv (scFv, V domains shown)
VH: QVQLVESGGGLVQPGRSLRLSCAASGLTLSNYWMNWVRQAPGKGLEWVANIHQDGVEKYYVDSVKGRFTISRDNAKNSLYLQMSSLRAEDTAVYYCARGGKYSNSSAMYQWGQGTLVTVSS
VL: DIVMTQSPSSLAASVGDRVTITCRASQSISGYLNWYQQKPGKAPNLLIYAASSLQSGVPSRFSGSGSGTDFTLTISSLQPDDFASYYCQQSYDIPRTFGQGTKVEIK
notes: human
B2: 4C9 scFv (scFv, V domains shown)
VH: QVQLVESGAEVKKPGASVKVSCTASGYTFAGYYMDWVRQAPGQGLEWMGRINPKSGDPNYEQKFQGRVTLTRDKSINTVYMELSRLKSDDTAIYYCARSVSGGAFDLWGRGTLVTVSS
VL: DIVMTQSPSSLSASVGDRVTITCRASQSINSYLNWYQQKPGKVPRLLIYSASSLQSGVPSRFSGSGSGTDFTLTISSLQPDDFATYYCQQYKRYSSFGQGTKVEIK
notes: human
B3: 8DC2 scFv (scFv, V domains shown)
VH: QVQLVQSGAEVKKPGSSVKVSCKTSGGTFRNFAISWVRQAPGQGLEWMGGIIPMFGKGHYAQNFQGRVTITADDSTTTAYMELSSLRYEDTAVYYCARGTRNGSLRDAFDIWGQGTTVTVSS
VL: ASVLTQDPSASGSPGQSVTISCTGTSSDVGGYNYVSWYQQHPGKAPKLMIYDVSNRPSEVPDRFSGSKSGNTASLTVSGLQAEDEADYYCSSYAGSNKRVFGGGTKLTVL
notes: human
B4: 8DC3 scFv (scFv, V domains shown)
VH: QVQLVQSGGGLVKPGGSLRLSCAASGFTFSSHSMNWVRQAPGKGLEWVSSISSSSSYIYYADSVKGRFTISRDNSKNSLYLQLNSLRAEDTAVYYCARGDHDFRSGYYGMDVWGQGTMVTVSS
VL: AELTQDPAVSVALGQTVRITCQGDSLRNYYASWYQQKPGQAPVLVIYGKNIRPSGIPDRFSGSSSGNTASLTITGAQAEDEADYYCNSRDSNGNHYVFGTGTKVTVL
notes: human
B5: 28H4 scFv (scFv, V domains shown)
VH: EVQLQQSGAELAKPGASVKLSCKASGYTFTSYWMHWVKQGPGQGLEWIGAIYPGNSDTGYNQKFKGKAKLTAVTSASTAYMELSSLTNEDSAVYYCTRHGYYIYALDYWGQGTSVTVSS
VL: DIVLTQSPAIMSASPGEKVTMTCSASSSVSYMYWYQQKPGSSPKPWIYRTSNLASGVPVRFSGSGSGTSYSLTISSMEAEDAATYYCQQYHNFPPTFGGGTKLEIK
B6: 30C8 scFv (scFv, V domains shown)
VH: EVQLKQSGTELVKPRSSVKMSCKASGYTFTDYWIGWTKQRPGHGLEWIGHIYPGGGYTNYNEKFKGKATLTADISSSAAYMQFSSPTSEDSAIYYCARIIMVESGDWYFDVWGTGTTLTVSS
VL: DIVLTQSPAIMSASLGEEITLTCSASSSVSYMHWYQQKSGTSPKLLIYSTSNLASGVPSRFSGSGSGTSYSLTISNMEAEDAATYYCQQWSSNPYTFGGGTKLELK
B7: 29B8 scFv (scFv, V domains shown)
VH: EVQLQQSGAELVKPGASVKLSCTASGFNIKDYYMHWVKQRTEQGLEWIGRIDPEDGETKYAPKFQGKATITADTSSNTAYLQLSSLTSEDTAVYYCVSLLRSRTGYFDYWGQGTTLTVSS
VL: ENVLTQSPAIMSASPGEKVTMTCSASSSVSYMHWYQQKSGTSPKRWIYDTSNLAPGVPARFSGSGSGTSYSLTISSMEAEDAASYFCHQWSSYPYTFGGGTKLEIK
B8: 29A2 scFv (scFv, V domains shown)
VH: EVQLLETGGDLVKPGGSLKLSCAASGFTFSYYGMSWVRQTPDKRLEWVATISSGGSYTYYPDSVKGRFTISRDNAKNTLYLQMSSLKSEDTAMYYCARRRVYYGSSYEDYWGQGTTLTVSS
VL: EIVLTQSPALMSASPGEKVTMTCSASSSVSYMYWYQQKPRSSPKPWIYLTSNLASGVPARFSGSGSGTSYSLTISSMEAEDAATYYCQQWSSNPYTFGGGTKLELK

In one assay the target is T1, BoNT/C1 holotoxin. Briefly: yeast scFv FACS.
Molecule B1 displayed an equilibrium dissociation constant (Kd) of 51.1 nM.
B2 had a Kd of 29.6 nM.
For the molecule B3, the binding result is recorded as “binds”.
In the case of B4, the binding result is “no binding (tested: ~1 µM)”.

Another assay has as its target T2, BoNT/D. The assay can be described thus: yeast scFv FACS.
For the molecule B1, the binding result was “no binding (tested: ~1 µM)”.
On to B2, for which the binding result is “no binding (tested: ~1 µM)”.
Regarding B3, the binding result was “no binding (tested: ~1 µM)”.
With B4, the binding result was “binds”.

The next assay has as its target T3, BoNT/F1 (proteolytic BoNT/F). Briefly: yeast scFv FACS.
B5 gave an equilibrium dissociation constant (Kd) of 20 nM. That is a double-digit nanomolar value.
Molecule B6 came in with a Kd of 0.2 nM.
B7 displayed a dissociation constant Kd of 35.8 nM.
In the case of B8, the affinity, expressed as Kd, was 0.99 nM.

For a further assay the target is unchanged. The assay can be described thus: yeast scFv FACS. The source holds these as a separate data set.
B5 had a Kd of 20 nM. In other words, the double-digit nanomolar range.
Take B6: the Kd turned out to be 0.2 nM.
On the same count and under the same terms, then B7, with 35.8 nM; and B8, with 0.99 nM.
